The assay addresses 抗Fasモノクローナル抗体HFE7A (mouse anti-human Fas monoclonal antibody HFE7A, from hybridoma FERM BP-5828). The experiment in a line: peptide (200 μg) preincubated with HFE7A (0.25 μg), then binding to WR19L12a cells by flow cytometry. (Flow cytometry measures light scatter and fluorescence of single cells or particles in a stream.)

Molecule KCRCKPNFFC [P110 (synthetic 10-residue peptide of the human Fas extracellular region)] returned a 結合阻害 (percent inhibition) of 60%.

The molecule EINCTRTQNT [P100 (synthetic 10-residue peptide of the human Fas extracellular region)] showed a 結合阻害 (percent inhibition) of 50%.

Source of the values: patent JP2000166573A.
